From patent US20100239570A1

How the values were obtained:
Abeta1-42 fibrils = Abeta1-42 fibrils (UniProt P05067); assay: ELISA, fibrils coated, antibody titrated
[1] = biological target: synthetic monomeric Abeta1-40 peptide (UniProt P05067); assay: ELISA, peptide coated, antibody titrated
[2] = biological target: synthetic monomeric Abeta1-42 peptide (UniProt P05067); assay: ELISA, peptide coated, antibody titrated

- EC50 (Abeta1-42 fibrils): 0.07 nM
- EC50 [1]: 0.04 nM
- EC50 [2]: 0.061 nM
B1: antibody NI-103 (antibody, V domains shown)
VH: EVQLHQSGPELVKPGASVKISCKTSGYTFTEYTMHWVKQSHGKSLEWIGGVNPYNDNTSYIRKLQGKVTLTVDRSSSTAYMELRSLTSEDSAVYFCARYGGLRPYYFPMDFWGQGTSVTVSS
VL: QVVLSQSPAILSASPGERVTLTCRASSSVNYMHWYQQKPGSSPKAWIYATSNLASGVPDRFSASGSGTSYSLTISRVEAEDAATYYCQQWRTNPPTFGAGTKLELKR
